Legend:
[1] = molecular target: CD31 solubilized from Jurkat T cell lysates and captured on PECAM 1.2-coupled CBA beads (human) (UniProt P16284); experiment: co-capture on PECAM 1.2 CBA beads from Jurkat lysate, anti-CD3-FITC, flow cytometry; T-cell activation (CD3 crosslink)
[2] = molecular target: CD31 solubilized from Jurkat T cell lysates and captured on PECAM 1.2-coupled CBA beads (human) (UniProt P16284); experiment: co-capture on PECAM 1.2 CBA beads from Jurkat lysate, anti-CD3-FITC, flow cytometry; antibody CD31 treatment (CD3 + CD31 crosslink)
[3] = molecular target: CD31 solubilized from Jurkat T cell lysates and captured on PECAM 1.2-coupled CBA beads (human) (UniProt P16284); experiment: co-capture on PECAM 1.2 CBA beads from Jurkat lysate, anti-CD3-FITC, flow cytometry; negative control (unstimulated)
[4] = molecular target: CD31 solubilized from Jurkat T cell lysates and captured on PECAM 1.2-coupled CBA beads (human) (UniProt P16284); experiment: co-capture on PECAM 1.2 CBA beads from Jurkat lysate, anti-CD3-FITC, flow cytometry; positive pY control (Na3VO4/H2O2)
[5] = molecular target: CD31 solubilized from Jurkat T cell lysates and captured on PECAM 1.2-coupled CBA beads (human) (UniProt P16284); experiment: co-capture on PECAM 1.2 CBA beads from Jurkat lysate, anti-CD28-PE, flow cytometry; positive pY control (Na3VO4/H2O2)
[6] = molecular target: CD31 solubilized from Jurkat T cell lysates and captured on PECAM 1.2-coupled CBA beads (human) (UniProt P16284); experiment: co-capture on PECAM 1.2 CBA beads from Jurkat lysate, anti-CD28-PE, flow cytometry; negative control (unstimulated)
[7] = molecular target: CD31 solubilized from Jurkat T cell lysates and captured on PECAM 1.2-coupled CBA beads (human) (UniProt P16284); experiment: co-capture on PECAM 1.2 CBA beads from Jurkat lysate, anti-CD28-PE, flow cytometry; peptide CD31 treatment (CD3 crosslink + CD31 peptide)
[8] = molecular target: CD31 solubilized from Jurkat T cell lysates and captured on PECAM 1.2-coupled CBA beads (human) (UniProt P16284); experiment: co-capture on PECAM 1.2 CBA beads from Jurkat lysate, anti-CD28-PE, flow cytometry; T-cell activation (CD3 crosslink)
[9] = molecular target: CD31 solubilized from Jurkat T cell lysates and captured on PECAM 1.2-coupled CBA beads (human) (UniProt P16284); experiment: co-capture on PECAM 1.2 CBA beads from Jurkat lysate, anti-CD28-PE, flow cytometry; antibody CD31 treatment (CD3 + CD31 crosslink)
[10] = molecular target: CD31 solubilized from Jurkat T cell lysates and captured on PECAM 1.2-coupled CBA beads (human) (UniProt P16284); experiment: co-capture on PECAM 1.2 CBA beads from Jurkat lysate, anti-SHP2-PE, flow cytometry; negative control (unstimulated)
[11] = molecular target: CD31 solubilized from Jurkat T cell lysates and captured on PECAM 1.2-coupled CBA beads (human) (UniProt P16284); experiment: co-capture on PECAM 1.2 CBA beads from Jurkat lysate, anti-SHP2-PE, flow cytometry; positive pY control (Na3VO4/H2O2)
[12] = molecular target: CD31 solubilized from Jurkat T cell lysates and captured on PECAM 1.2-coupled CBA beads (human) (UniProt P16284); experiment: co-capture on PECAM 1.2 CBA beads from Jurkat lysate, anti-SHP2-PE, flow cytometry; peptide CD31 treatment (CD3 crosslink + CD31 peptide)
[13] = molecular target: CD31 solubilized from Jurkat T cell lysates and captured on PECAM 1.2-coupled CBA beads (human) (UniProt P16284); experiment: co-capture on PECAM 1.2 CBA beads; antibody CD31 treatment against CD3 crosslink conditions
[14] = molecular target: CD31 solubilized from Jurkat T cell lysates and captured on PECAM 1.2-coupled CBA beads (human) (UniProt P16284); experiment: co-capture on PECAM 1.2 CBA beads; peptide CD31 treatment against CD3 crosslink conditions
[15] = molecular target: CD31 solubilized from Jurkat T cell lysates and captured on PECAM 1.2-coupled CBA beads (human) (UniProt P16284); experiment: co-capture on PECAM 1.2 CBA beads from Jurkat lysate, anti-SHP2-PE, flow cytometry; T-cell activation (CD3 crosslink)
[16] = molecular target: CD31 solubilized from Jurkat T cell lysates and captured on PECAM 1.2-coupled CBA beads (human) (UniProt P16284); experiment: co-capture on PECAM 1.2 CBA beads from Jurkat lysate, anti-SHP2-PE, flow cytometry; antibody CD31 treatment (CD3 + CD31 crosslink)

In the case of CD3 (receptor), the MFI CD3 [1] was 17900 MFI, the MFI CD3 [2] was 2420 MFI and the MFI CD3 [3] was 197 MFI. The MFI CD3 [4] was 354 MFI.
Work on “CD28 (from UniProt P10747 19-220) (receptor)” yielded an MFI CD28 [5] of 3930 MFI, an MFI CD28 [6] of 8160 MFI and an MFI CD28 [7] of 24300 MFI. The MFI CD28 [8] was 25200 MFI and the MFI CD28 [9] was 17100 MFI.
“SHP-2 (from UniProt Q06124 2-593) (enzyme)” showed an MFI SHP-2 [10] of 165 MFI, an MFI SHP-2 [11] of 193 MFI and an MFI SHP-2 [12] of 185 MFI. For the same substance, the increase of the amount of SHP-2 associated to CD31 [13] was 50%, the increase of the amount of SHP-2 associated to CD31 [14] was 100% and the MFI SHP-2 [15] was 90 MFI. The MFI SHP-2 [16] was 149 MFI.
